Reference: US20210206838A1

How the values were obtained:
Assay in all cases: cell-based or functional assay
[1] = molecular target: HIV pseudovirus 0260.v5.c36 (envelope glycoprotein) (HIV)
[2] = molecular target: HIV pseudovirus CNE52 (envelope glycoprotein) (HIV)
[3] = molecular target: HIV pseudovirus Ce1176_A3 (envelope glycoprotein) (HIV)
[4] = molecular target: HIV pseudovirus Du172.17 (envelope glycoprotein) (HIV)
[5] = molecular target: HIV pseudovirus RHPA4259.7 (envelope glycoprotein) (HIV)
[6] = molecular target: HIV pseudovirus SC05.8C11.2344 (envelope glycoprotein) (HIV)

Binder	neutralization IC50 [1] [µg/mL]	neutralization IC80 [1] [µg/mL]	neutralization IC50 [2] [µg/mL]	neutralization IC80 [2] [µg/mL]	neutralization IC50 [3] [µg/mL]	neutralization IC80 [3] [µg/mL]	neutralization IC50 [4] [µg/mL]	neutralization IC80 [4] [µg/mL]	neutralization IC50 [5] [µg/mL]	neutralization IC80 [5] [µg/mL]	neutralization IC50 [6] [µg/mL]	neutralization IC80 [6] [µg/mL]
MS-40 (antibody, V domains shown) VH: QMQLQESGPGLVKPSETLSLTCSVSGASISDSYWSWIRRSPGKGLEWIGYVHKSGDTNYSPSLKSRVNLSLDTSKNQVSLSLVAATAADSGVYYCARTLHGRRIYGIVAFNEWFTYFYMDVWGNGTQVTVSS VL: SDISVAPGQTARISCGEKSLGSRAVQWYQQRAGQAPSLIIYNNQDRPSGIPERFSGSPDSPFGTTATLTITSVEAGDEADYYCHIWDSRVPTKWVFGGGTTLTVLG	0.043	0.149	2.22	22.2	0.009	0.033	0.046	0.36	0.006	0.025	0.014	0.05
MS-48 (antibody, V domains shown) VH: QMQLQESGPGLVKPSETLSLTCSVSGASISDSYWSWIRRSPGKGLEWIGYVHKSGDTNYSPSLKSRVNLSLDTSKNQVSLSLVAATAADSGKYYCARTLHGRRIYGIVAFNEWFTYFYMDVWGNGTQVTVSS VL: SDISVAPGETARISCGEKSLGSRAVQWYQQRAGQAPSLIIYNNQDRPSGIPERFSGSPDSPFGTTATLTITSVEAGDEADYYCHIWDSRVPTKWVFGGGTTLTVLG	0.021	0.108	2.81	21.9	0.009	0.036	0.02	0.165	0.013	0.034	0.016	0.063
